The values below come from article PMC4072508, “Genome-Wide Prediction and Validation of Peptides That Bind Human Prosurvival Bcl-2 Proteins” (PLoS Computational Biology, 2014).

Common to all, as to experiment: peptide SPOT array, c-Myc-tagged receptor at 1 uM or 100 nM, anti-c-Myc-Cy3
One test deals with Bcl-xL, Q07817.
In the next test the target is T1, Mcl-1, Q07820.
T1 chain: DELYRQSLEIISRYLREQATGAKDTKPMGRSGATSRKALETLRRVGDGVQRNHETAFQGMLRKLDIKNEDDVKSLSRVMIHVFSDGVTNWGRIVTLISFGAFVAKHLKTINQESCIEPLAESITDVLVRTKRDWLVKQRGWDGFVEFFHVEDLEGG

The target of the next test is T2, Bfl-1, Q16548.
T2 chain: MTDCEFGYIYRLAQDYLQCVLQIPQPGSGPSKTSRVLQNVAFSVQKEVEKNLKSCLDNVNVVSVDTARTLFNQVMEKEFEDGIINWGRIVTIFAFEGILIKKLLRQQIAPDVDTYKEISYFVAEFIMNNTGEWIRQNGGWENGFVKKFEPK

Bcl-xL, Q07817, sequence (Q07817 1-209): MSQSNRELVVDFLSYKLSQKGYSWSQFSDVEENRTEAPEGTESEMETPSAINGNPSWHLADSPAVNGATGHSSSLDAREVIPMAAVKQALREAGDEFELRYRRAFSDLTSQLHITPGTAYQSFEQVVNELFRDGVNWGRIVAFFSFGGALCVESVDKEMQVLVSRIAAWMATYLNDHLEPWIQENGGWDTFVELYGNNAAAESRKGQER

With VFDDLRGSVSDSWVGDSTGVILVLTT [SORT1], the SPOT signal as a fraction of Bim BH3's signal on the same receptor and array with Bcl-xL, Q07817 turned out to be 0.02; with Mcl-1, Q07820, 0.02.
With IQENVDISTVYQIFLDEVLGSGQFGI [PRKD3], the SPOT signal as a fraction of Bim BH3's signal on the same receptor and array with Bcl-xL, Q07817 worked out at 0.08; in the test with Bfl-1, Q16548, 0.05; with Mcl-1, Q07820, 0.05.
LRVSTKIGSCMKSVLEVMGIGRSFEE [CAD]: the SPOT signal as a fraction of Bim BH3's signal on the same receptor and array in the test with Bcl-xL, Q07817 stood at 0.04; with Mcl-1, Q07820 it was 0.04.
Turning to NKSLTTLGLVISSLADQAAGKGKSKF [KIF13A], the SPOT signal as a fraction of Bim BH3's signal on the same receptor and array with Bcl-xL, Q07817 was 0.4; in the test with Mcl-1, Q07820 it was 0.18.
For the molecule KQMKEDGACLFRAVLDQVYGDQDMHE, the SPOT signal as a fraction of Bim BH3's signal on the same receptor and array with Bfl-1, Q16548 amounted to 0.0567.
In the case of NDDTPWIARTLDNLLDELTAILSAPA [GBP6], the SPOT signal as a fraction of Bim BH3's signal on the same receptor and array with Bcl-xL, Q07817 was found to be 0.05; in the test with Bfl-1, Q16548, 0.04; in the test with Mcl-1, Q07820, 0.04.
As to RAKASSLSEEDKHFADGLETDGTLQK [DSN1], the SPOT signal as a fraction of Bim BH3's signal on the same receptor and array amounted to 0.06 in the test with Bcl-xL, Q07817; 0.03 in the test with Bfl-1, Q16548; 0.04 with Mcl-1, Q07820.
In the case of RCELQICGLADADAGEYLCVCGQERT [OBSCN], the SPOT signal as a fraction of Bim BH3's signal on the same receptor and array with Bcl-xL, Q07817 came out at 0.01; with Mcl-1, Q07820 it was 0.01.
With ADVHGIWSRLFCDFLDEFEVLDTTGE [UBA6], the SPOT signal as a fraction of Bim BH3's signal on the same receptor and array with Bcl-xL, Q07817 amounted to 0.06; with Bfl-1, Q16548, 0.04; with Mcl-1, Q07820 it was 0.05.
Molecule KQMKEDGACLDRAVADQVYGDQDMHE displayed an SPOT signal as a fraction of Bim BH3's signal on the same receptor and array in the test with Bfl-1, Q16548 of 0.0533.
As to AVLCVECGYKYRFFLEDAEIAARELN [MSH3], the SPOT signal as a fraction of Bim BH3's signal on the same receptor and array with Bcl-xL, Q07817 is 0.02; with Mcl-1, Q07820, 0.02.
Regarding VILADPDGHEICFVGDEAFRELSKMD [GLOD4], the SPOT signal as a fraction of Bim BH3's signal on the same receptor and array amounted to 0.02 in the test with Bcl-xL, Q07817 and 0.01 with Mcl-1, Q07820.
For VLSRIEAGRSLKSVLDEFGISKSTFY [TIGD7] the same measures were 0.08 and 0.085.
In the case of ERAISCMGQIDCNLGDNLGSDLPNTL, the SPOT signal as a fraction of Bim BH3's signal on the same receptor and array with Bcl-xL, Q07817 is 0.01; with Mcl-1, Q07820, 0.01.
Take SRQPRDFGDSLARGGKGFLRGVVGGV [VPS13C]: the SPOT signal as a fraction of Bim BH3's signal on the same receptor and array was 1 with Bcl-xL, Q07817 and 0.53 with Mcl-1, Q07820.
Consider ISSLDLLPYGDRYIAKVLKNSIHEKF [IQGAP2], for which the SPOT signal as a fraction of Bim BH3's signal on the same receptor and array with Bcl-xL, Q07817 turned out to be 0.64; with Bfl-1, Q16548, 0.51; with Mcl-1, Q07820, 0.34.
With AIKWDPTGNLLASCLDDMTLKIWSMK [TBL1XR1], the SPOT signal as a fraction of Bim BH3's signal on the same receptor and array with Bcl-xL, Q07817 was found to be 0.07; with Mcl-1, Q07820, 0.05.
On to HPRKESQVRQLAWVGDGVWVSIRLDS [SPAG9], for which the SPOT signal as a fraction of Bim BH3's signal on the same receptor and array was found to be 0.02 with Bcl-xL, Q07817 and 0.02 with Mcl-1, Q07820.
Regarding RGAMLSLATGDAHSGSDLSLLVPEIE [FAM115A], the SPOT signal as a fraction of Bim BH3's signal on the same receptor and array was found to be 0.06 with Bcl-xL, Q07817 and 0.04 with Mcl-1, Q07820.
As to SKFVILSAHKDVFIGDTLSRQAKAAD [BCAR1], the SPOT signal as a fraction of Bim BH3's signal on the same receptor and array amounted to 0.01 in the test with Bcl-xL, Q07817 and 0.02 with Mcl-1, Q07820.
The molecule THFLDEEVKLIKKMGDHLTNLHRLGG [FTL] returned an SPOT signal as a fraction of Bim BH3's signal on the same receptor and array in the test with Bfl-1, Q16548 of 0.04.
For the molecule HGTSSRIGSSMKSVGEVMAIGRTFEE [CPS1], the SPOT signal as a fraction of Bim BH3's signal on the same receptor and array was determined as 0.02 with Bcl-xL, Q07817 and 0.02 with Mcl-1, Q07820.
Consider ERAISCMGQIICNLGDNLGSDLPNTL, for which the SPOT signal as a fraction of Bim BH3's signal on the same receptor and array in the test with Bcl-xL, Q07817 came to 0.01; with Mcl-1, Q07820, 0.01.
SWFIQSLCAMLKQYLDKLEFMHILTR [CASP3]: the SPOT signal as a fraction of Bim BH3's signal on the same receptor and array in the test with Bcl-xL, Q07817 was 0.27; in the test with Bfl-1, Q16548, 0.21.
In the test with Bfl-1, Q16548, KQMKEDGACLFRAVADQVYGDQDMHE returned an SPOT signal as a fraction of Bim BH3's signal on the same receptor and array of 0.0533.
Take PAKKMTLSEIDRWICDNFPYYKNAGI [FOXJ2]: the SPOT signal as a fraction of Bim BH3's signal on the same receptor and array with Bcl-xL, Q07817 came to 0.58; with Bfl-1, Q16548, 0.26; in the test with Mcl-1, Q07820, 0.29.
On to MEMYQPSAVVLQCGADSLSGDRLGCF [HDAC2], for which, in the test with Bfl-1, Q16548, the SPOT signal as a fraction of Bim BH3's signal on the same receptor and array is 0.03.
